According to article PMC8307404, “Crystal Structure-Guided Design of Bisubstrate Inhibitors and Photoluminescent Probes for Protein Kinases of the PIM Family” (Molecules, 2021):
Square brackets hold non-standard residues; d marks the D form. Peptide text beside a SMILES is read from it. * marks the point of attachment. X3 = O=C(CCCCCNCc1nc2c(sc3cc(Br)cnc32)c(=O)[nH]1)*

Legend:
Experiment in all cases: Kinase profiling (radiometric filter-binding)
Format in all cases: biochemical
EIF2AK3 = target: T1, EIF2AK3 (Homo sapiens, UniProt Q9NZJ5); settings: EIF2AK3, 1 µM inhibitor; read-out: Residual activity, %
T1 sequence (Q9NZJ5 30-1116): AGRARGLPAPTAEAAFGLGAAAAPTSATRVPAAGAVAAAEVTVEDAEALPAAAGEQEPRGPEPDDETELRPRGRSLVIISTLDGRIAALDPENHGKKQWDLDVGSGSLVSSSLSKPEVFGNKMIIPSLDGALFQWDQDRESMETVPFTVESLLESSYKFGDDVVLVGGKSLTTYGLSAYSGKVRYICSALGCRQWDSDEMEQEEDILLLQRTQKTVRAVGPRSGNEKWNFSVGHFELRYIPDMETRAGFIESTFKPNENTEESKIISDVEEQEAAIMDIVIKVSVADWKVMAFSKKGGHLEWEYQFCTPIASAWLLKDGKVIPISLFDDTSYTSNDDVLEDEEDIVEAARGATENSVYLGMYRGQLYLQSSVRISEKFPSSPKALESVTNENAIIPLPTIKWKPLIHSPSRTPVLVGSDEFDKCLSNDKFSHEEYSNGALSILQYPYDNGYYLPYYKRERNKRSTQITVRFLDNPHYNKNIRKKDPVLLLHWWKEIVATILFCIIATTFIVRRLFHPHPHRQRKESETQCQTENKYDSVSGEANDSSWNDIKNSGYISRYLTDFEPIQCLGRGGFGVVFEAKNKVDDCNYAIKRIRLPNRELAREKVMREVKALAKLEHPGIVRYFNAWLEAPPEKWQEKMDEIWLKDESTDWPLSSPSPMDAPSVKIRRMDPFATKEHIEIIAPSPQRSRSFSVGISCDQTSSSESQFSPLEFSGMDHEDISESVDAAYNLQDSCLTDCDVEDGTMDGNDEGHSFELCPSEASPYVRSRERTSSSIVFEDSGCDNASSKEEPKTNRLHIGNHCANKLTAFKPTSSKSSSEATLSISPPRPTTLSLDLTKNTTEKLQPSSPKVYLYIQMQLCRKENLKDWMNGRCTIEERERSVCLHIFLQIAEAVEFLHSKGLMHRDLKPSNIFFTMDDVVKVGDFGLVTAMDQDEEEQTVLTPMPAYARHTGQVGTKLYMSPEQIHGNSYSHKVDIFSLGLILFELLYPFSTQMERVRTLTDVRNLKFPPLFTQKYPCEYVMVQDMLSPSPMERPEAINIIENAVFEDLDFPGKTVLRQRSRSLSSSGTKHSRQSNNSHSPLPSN
Method in brief: (§1)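 A 1 µM final dose of each inhibitor was profiled on human protein kinases; ATP was kept at or beneath the KM of every enzyme, and radiometric filter binding measured turnover, expressed as % of the inhibitor-free reaction.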

EPH-A4 = EPH-A4 (Homo sapiens, UniProt P54764); settings: EPH-A4, 1 µM inhibitor; read-out: Residual activity, %
Sequence of EPH-A4 (P54764 20-986): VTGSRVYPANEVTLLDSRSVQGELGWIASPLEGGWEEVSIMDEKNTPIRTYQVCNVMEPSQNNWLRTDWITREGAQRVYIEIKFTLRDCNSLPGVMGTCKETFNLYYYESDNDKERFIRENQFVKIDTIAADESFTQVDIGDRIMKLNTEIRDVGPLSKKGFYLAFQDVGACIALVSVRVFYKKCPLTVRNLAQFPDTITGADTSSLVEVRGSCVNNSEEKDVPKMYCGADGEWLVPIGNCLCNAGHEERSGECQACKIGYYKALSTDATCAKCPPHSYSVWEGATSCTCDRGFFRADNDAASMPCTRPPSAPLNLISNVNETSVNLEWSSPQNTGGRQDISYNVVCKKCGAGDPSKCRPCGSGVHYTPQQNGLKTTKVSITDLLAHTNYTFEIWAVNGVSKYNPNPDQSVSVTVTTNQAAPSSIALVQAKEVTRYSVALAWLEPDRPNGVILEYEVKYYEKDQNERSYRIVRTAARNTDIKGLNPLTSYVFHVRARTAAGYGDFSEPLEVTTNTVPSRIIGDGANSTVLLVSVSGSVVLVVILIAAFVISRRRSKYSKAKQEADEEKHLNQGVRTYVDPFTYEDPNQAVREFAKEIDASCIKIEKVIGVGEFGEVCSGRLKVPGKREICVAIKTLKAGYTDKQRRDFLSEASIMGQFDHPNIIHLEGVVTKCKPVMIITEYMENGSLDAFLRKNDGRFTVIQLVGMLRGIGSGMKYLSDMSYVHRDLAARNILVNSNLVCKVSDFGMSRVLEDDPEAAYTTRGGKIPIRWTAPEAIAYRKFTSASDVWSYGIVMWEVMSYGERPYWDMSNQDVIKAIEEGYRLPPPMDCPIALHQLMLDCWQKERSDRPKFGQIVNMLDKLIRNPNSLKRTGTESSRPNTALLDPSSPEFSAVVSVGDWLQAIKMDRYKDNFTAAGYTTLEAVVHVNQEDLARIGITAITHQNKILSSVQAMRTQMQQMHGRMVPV
Method in brief: as §1

GCK = target: T2, GCK (Homo sapiens, UniProt Q12851); settings: 1 µM inhibitor, read-out: Residual activity, %
T2 sequence (Q12851 1-820): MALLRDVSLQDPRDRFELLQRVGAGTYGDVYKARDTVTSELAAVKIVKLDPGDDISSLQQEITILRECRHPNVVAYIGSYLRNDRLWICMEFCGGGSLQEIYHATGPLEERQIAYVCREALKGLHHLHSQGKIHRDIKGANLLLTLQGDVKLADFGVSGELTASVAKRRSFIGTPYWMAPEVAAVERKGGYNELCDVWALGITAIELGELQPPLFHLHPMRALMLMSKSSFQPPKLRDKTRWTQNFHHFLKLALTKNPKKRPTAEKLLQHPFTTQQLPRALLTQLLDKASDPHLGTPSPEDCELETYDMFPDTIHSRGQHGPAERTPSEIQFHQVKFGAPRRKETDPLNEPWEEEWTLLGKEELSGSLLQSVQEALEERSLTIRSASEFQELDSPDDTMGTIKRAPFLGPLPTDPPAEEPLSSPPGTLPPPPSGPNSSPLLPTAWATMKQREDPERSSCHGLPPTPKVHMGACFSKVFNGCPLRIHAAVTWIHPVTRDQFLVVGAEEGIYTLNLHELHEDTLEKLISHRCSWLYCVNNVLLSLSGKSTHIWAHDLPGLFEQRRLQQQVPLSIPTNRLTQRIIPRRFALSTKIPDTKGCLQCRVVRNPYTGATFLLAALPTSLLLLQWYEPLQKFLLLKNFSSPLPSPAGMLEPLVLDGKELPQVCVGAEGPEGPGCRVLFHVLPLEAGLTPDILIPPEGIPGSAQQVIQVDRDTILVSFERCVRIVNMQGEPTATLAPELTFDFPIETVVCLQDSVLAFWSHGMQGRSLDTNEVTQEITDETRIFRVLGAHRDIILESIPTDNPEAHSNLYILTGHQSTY
Method in brief: as §1

MARK3 = MARK3 (Homo sapiens, UniProt P27448); settings: MARK3, 1 µM inhibitor; read-out: Residual activity, %
Sequence of MARK3 (P27448 whole entry): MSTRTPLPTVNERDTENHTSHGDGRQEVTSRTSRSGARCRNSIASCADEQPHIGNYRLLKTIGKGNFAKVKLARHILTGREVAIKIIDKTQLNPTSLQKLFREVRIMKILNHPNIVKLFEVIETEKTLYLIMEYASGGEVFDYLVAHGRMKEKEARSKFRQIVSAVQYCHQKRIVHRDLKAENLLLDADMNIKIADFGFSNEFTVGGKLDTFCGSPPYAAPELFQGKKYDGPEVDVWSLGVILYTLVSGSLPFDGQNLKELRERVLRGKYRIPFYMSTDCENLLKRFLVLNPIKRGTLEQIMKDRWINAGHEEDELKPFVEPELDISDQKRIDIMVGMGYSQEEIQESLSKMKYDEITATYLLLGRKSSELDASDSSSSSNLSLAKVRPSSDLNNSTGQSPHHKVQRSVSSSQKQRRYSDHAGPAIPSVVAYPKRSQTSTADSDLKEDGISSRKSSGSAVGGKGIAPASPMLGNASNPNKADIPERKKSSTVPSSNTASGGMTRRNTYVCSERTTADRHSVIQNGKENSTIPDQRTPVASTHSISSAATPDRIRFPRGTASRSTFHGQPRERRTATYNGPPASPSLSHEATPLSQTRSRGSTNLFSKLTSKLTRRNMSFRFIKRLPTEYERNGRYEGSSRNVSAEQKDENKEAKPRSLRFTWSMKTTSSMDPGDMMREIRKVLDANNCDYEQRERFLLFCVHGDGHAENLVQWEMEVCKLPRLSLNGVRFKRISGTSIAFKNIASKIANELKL
Method in brief: as §1

MPSK1 = MPSK1 (Homo sapiens, UniProt O75716); settings: MPSK1, 1 µM inhibitor; read-out: Residual activity, %
Sequence of MPSK1 (O75716 whole entry): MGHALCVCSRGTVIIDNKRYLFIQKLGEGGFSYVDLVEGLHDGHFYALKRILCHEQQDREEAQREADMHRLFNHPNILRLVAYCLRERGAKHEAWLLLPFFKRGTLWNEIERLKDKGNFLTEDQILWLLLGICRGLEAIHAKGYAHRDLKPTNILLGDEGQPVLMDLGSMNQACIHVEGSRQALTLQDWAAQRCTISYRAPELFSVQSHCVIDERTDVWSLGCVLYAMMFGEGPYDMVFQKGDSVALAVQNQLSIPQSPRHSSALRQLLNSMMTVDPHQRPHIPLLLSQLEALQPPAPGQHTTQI
Method in brief: as §1

PKB = PKB (Homo sapiens, UniProt P31749); settings: first of two PKB lines (Greek letter lost), 1 µM inhibitor, read-out: Residual activity, %
Sequence of PKB (P31749 whole entry): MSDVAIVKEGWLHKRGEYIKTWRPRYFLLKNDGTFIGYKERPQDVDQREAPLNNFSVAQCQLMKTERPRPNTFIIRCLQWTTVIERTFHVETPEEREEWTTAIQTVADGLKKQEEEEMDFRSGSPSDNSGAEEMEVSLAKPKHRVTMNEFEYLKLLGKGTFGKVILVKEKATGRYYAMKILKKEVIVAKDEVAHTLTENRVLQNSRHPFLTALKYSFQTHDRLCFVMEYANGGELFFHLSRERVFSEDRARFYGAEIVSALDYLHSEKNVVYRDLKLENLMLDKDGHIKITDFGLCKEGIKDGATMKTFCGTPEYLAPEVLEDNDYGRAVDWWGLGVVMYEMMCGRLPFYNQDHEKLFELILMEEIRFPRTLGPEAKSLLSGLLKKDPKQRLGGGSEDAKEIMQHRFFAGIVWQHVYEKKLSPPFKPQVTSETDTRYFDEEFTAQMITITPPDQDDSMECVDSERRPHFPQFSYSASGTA
Method in brief: as §1

S6K1 = S6K1 (Homo sapiens, UniProt P23443); settings: S6K1, 1 µM inhibitor; read-out: Residual activity, %
Sequence of S6K1 (P23443 whole entry): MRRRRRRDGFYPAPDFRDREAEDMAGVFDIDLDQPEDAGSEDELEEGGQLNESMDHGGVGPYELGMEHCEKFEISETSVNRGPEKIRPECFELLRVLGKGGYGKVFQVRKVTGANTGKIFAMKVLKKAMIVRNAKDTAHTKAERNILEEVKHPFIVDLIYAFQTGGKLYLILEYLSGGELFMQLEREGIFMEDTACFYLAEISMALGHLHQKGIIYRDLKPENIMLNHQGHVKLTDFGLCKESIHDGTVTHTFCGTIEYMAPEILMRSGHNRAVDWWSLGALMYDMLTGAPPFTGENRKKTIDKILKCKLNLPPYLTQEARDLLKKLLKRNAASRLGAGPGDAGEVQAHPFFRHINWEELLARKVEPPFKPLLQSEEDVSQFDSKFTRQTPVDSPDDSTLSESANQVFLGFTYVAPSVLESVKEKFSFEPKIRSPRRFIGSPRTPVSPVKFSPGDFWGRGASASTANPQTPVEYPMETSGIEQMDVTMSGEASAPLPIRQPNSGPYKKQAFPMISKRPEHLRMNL
Method in brief: as §1

SIK3 = SIK3 (Homo sapiens, UniProt Q9Y2K2); settings: SIK3, 1 µM inhibitor; read-out: Residual activity, %
Sequence of SIK3 (Q9Y2K2 whole entry): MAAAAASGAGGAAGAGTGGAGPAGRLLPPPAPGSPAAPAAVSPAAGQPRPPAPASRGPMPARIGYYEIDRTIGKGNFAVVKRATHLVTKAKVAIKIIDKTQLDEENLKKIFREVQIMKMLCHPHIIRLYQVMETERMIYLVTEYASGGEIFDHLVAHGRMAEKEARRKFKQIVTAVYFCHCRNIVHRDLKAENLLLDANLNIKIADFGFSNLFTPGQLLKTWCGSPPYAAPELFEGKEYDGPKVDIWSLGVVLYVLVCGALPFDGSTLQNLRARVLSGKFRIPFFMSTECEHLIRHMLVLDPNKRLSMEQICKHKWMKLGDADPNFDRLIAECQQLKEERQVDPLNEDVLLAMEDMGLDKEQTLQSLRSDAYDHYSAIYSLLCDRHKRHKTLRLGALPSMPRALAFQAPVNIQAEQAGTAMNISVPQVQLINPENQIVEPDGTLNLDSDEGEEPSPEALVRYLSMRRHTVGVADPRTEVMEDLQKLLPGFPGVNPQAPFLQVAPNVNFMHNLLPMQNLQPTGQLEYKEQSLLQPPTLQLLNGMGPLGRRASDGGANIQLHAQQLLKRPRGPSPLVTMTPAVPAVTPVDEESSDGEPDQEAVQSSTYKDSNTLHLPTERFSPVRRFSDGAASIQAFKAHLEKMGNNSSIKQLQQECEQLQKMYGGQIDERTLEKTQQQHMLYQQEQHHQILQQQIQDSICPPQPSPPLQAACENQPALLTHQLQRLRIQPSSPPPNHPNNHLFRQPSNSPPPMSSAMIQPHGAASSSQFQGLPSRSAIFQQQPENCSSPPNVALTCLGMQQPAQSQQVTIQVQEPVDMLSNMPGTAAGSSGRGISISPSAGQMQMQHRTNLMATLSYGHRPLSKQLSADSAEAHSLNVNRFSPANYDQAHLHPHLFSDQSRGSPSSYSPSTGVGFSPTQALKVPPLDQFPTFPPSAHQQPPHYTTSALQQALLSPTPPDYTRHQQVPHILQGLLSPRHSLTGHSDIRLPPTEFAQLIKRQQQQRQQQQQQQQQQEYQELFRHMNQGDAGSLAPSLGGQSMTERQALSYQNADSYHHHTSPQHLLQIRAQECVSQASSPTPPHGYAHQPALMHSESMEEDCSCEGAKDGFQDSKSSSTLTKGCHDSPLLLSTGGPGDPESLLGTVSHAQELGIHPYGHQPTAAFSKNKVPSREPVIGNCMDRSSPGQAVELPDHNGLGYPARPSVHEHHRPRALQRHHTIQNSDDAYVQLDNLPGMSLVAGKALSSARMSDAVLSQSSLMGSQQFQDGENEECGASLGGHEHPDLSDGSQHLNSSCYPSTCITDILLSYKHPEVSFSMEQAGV
Method in brief: as §1

p38 MAPK = p38 MAPK (Homo sapiens, UniProt Q16539); settings: first of four lines (Greek letter lost), 1 µM inhibitor, read-out: Residual activity, %
Sequence of p38 MAPK (Q16539 whole entry): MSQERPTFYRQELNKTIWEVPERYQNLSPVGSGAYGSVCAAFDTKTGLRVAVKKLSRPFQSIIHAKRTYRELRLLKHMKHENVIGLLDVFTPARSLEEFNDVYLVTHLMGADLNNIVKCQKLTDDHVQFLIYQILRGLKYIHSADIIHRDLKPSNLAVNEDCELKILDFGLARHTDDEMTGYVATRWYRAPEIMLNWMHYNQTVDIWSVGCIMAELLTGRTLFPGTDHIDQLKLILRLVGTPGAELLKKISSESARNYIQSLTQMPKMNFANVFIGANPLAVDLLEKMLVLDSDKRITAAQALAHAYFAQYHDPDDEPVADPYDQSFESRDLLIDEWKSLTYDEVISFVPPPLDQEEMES
Method in brief: as §1

Row | SMILES | remaining activity at 1 µM (EIF2AK3) [%] | remaining activity at 1 µM (EPH-A4) [%] | remaining activity at 1 µM (GCK) [%] | remaining activity at 1 µM (MARK3) [%] | remaining activity at 1 µM (MPSK1) [%] | remaining activity at 1 µM (PKB) [%] | remaining activity at 1 µM (S6K1) [%] | remaining activity at 1 µM (SIK3) [%] | remaining activity at 1 µM (p38 MAPK) [%]
1 | N=C(N)NCCC[C@@H](NC(=O)CCCCCNC(=O)Cn1cnc2c(I)c(I)c(I)c(I)c21)C(=O)N[C@H](CCCNC(=N)N)C(=O)N[C@H](CCCNC(=N)N)C(=O)N[C@H](CCCNC(=N)N)C(=O)N[C@H](CCCNC(=N)N)C(=O)N[C@H](CCCNC(=N)N)C(=O)N[C@H](CCCCN)C(N)=O [ARC-3125, TIBI-CH2-C(=O)-Ahx-(D-Arg)6-D-Lys-NH2] | 11 ± 11 | 97 ± 4 | 56 ± 4 | 72 ± 1 | 75 ± 3 | -1 ± 1 | 13 | 89 ± 7 | 53 ± 8
2 | N=C(N)NCCC[C@@H](NC(=O)CNC(=O)[C@@H](CCCNC(=N)N)NC(=O)[C@@H](CCCNC(=N)N)NC(=O)CCCCCCCNCc1nc2c(sc3cc(Br)cnc32)c(=O)[nH]1)C(=O)N[C@H](CCCCN)C(N)=O [Compound 1, BPTP-Aoc-(D-Arg)2-Gly-D-Arg-D-Lys-NH2] | 94 ± 7 | 97 ± 2 | 112 | 100 ± 6 | 113 ± 21 | 101 ± 6 | 98 ± 2 | 106 ± 2 | 113 ± 10
3 | N=C(N)NCCC[C@@H](NC(=O)CCCCCNCc1nc2c(sc3cc(Br)cnc32)c(=O)[nH]1)C(=O)N[C@H](CCCNC(=N)N)C(=O)N[C@H](CCCNC(=N)N)C(=O)N[C@H](CCCNC(=N)N)C(=O)N[C@H](CCCNC(=N)N)C(=O)N[C@H](CCCNC(=N)N)C(=O)N[C@H](CCCCN)C(N)=O [ARC-3126, BPTP-Ahx-(D-Arg)6-D-Lys-NH2] (X3-[dR][dR][dR][dR][dR][dR][dK]-NH2) | 60 ± 6 | 107 ± 13 | 88 ± 14 | 112 ± 17 | 79 ± 11 | 80 ± 4 | 75 ± 2 | 117 ± 15 | 116 ± 4
4 | N=C(N)NCCC[C@@H](NC(=O)CNC(=O)[C@@H](CCCNC(=N)N)NC(=O)[C@@H](CCCNC(=N)N)NC(=O)Cn1cc(CNCc2nc3c(sc4ccc(Br)cc43)c(=O)[nH]2)nn1)C(=O)N[C@H](CCCCN)C(N)=O [Compound 3, BBTP-Amt-(D-Arg)2-Gly-D-Arg-D-Lys-NH2] | 113 ± 13 | 95 ± 5 | 97 ± 7 | 100 ± 8 | 110 ± 2 | 72 ± 12 | 55 ± 6 | 66 ± 6 | 110 ± 7
5 | N=C(N)NCCC[C@@H](NC(=O)CNC(=O)[C@@H](CCCNC(=N)N)NC(=O)[C@@H](CCCNC(=N)N)NC(=O)CCCCCCCNCc1nc2c(sc3ccc(Br)cc32)c(=O)[nH]1)C(=O)N[C@H](CCCCN)C(N)=O [Compound 2, BBTP-Aoc-(D-Arg)2-Gly-D-Arg-D-Lys-NH2] | 98 ± 5 | 103 ± 16 | 114 ± 2 | 102 ± 7 | 113 ± 15 | 67 ± 7 | 85 ± 1 | 97 ± 9 | 116 ± 10
